This note sets out measurements from the supplement of paper PMC10567573.

The chains are these.
B1: ARL6IP1 (parent)
chain: YLDPSVLSGVSCFVMFLCLADYLV
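Also: lentivirally expressed fusions sorted by FACS into six bins by GFP to DsRed ratio, PSI derived from sequencing read proportions per bin multiplied by bin number.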

Variants of B1 are the subject of the data set. As to the kind of experiment: protein stability index of a GFP-peptide fusion (GPS, HEK-293T) (PSI 1-6); higher = more stable. The note with it: c terminus: a fixed tail appended.
YLDPSVLSGVSCTVMFLCLADYLV [F13T]: the protein stability index was 4.33.

Consider YLDPSVLSGVSCDVMFLCLADYLV [F13D], for which the protein stability index amounted to 2.64.

In the case of YLDPSVLSGVSCAVMFLCLADYLV [F13A], the protein stability index is 3.86.

As for YLDPSVLSGVSCIVMFLCLADYLV [F13I], the protein stability index amounted to 2.81.

Turning to YLDPSVLSGVSCQVMFLCLADYLV [F13Q], the protein stability index was 3.58.

For the variant YLDPSVLSGVSCYVMFLCLADYLV [F13Y], the protein stability index was 3.73.

As for YLDPSVLSGVSCWVMFLCLADYLV [F13W], the protein stability index came out at 3.83.

For the variant YLDPSVLSGVSCCVMFLCLADYLV [F13C], the protein stability index stood at 2.92.

Consider YLDPSVLSGVSCKVMFLCLADYLV [F13K], for which the protein stability index was found to be 2.38.

As to YLDPSVLSGVSCNVMFLCLADYLV [F13N], the protein stability index was 2.42.

Regarding YLDPSVLSGVSCFVMGLCLADYLV [F16G], the protein stability index stood at 2.14.

For the variant YLDPSVLSGVSCFVMNLCLADYLV [F16N], the protein stability index came to 2.88.

On to YLDPSVLSGVSCFVMPLCLADYLV [F16P], for which the protein stability index amounted to 2.64.

Take YLDPSVLSGVSCFVMVLCLADYLV [F16V]: the protein stability index was determined as 3.72.

In the case of YLDPSVLSGVSCFVMLLCLADYLV [F16L], the protein stability index was determined as 2.62.

With YLDPSVLSGVSCFVMALCLADYLV [F16A], the protein stability index is 1.99.

As to YLDPSVLSGVSCFVMRLCLADYLV [F16R], the protein stability index worked out at 3.63.

Regarding YLDPSVLSGVSCFVMKLCLADYLV [F16K], the protein stability index stood at 1.74.

For the variant YLDPSVLSGVSCFVMWLCLADYLV [F16W], the protein stability index is 2.85.

In the case of YLDPSVLSGVSCFVMFLLLADYLV [C18L], the protein stability index was 3.54.

For the variant YLDPSVLSGVSCFVMFLQLADYLV [C18Q], the protein stability index is 2.01.

As to YLDPSVLSGVSCFVMFLHLADYLV [C18H], the protein stability index amounted to 2.85.

On to YLDPSVLSGVSCFVMFLFLADYLV [C18F], for which the protein stability index is 3.35.

YLDPSVLSGVSCFVMFLTLADYLV [C18T]: the protein stability index came to 3.26.

YLDPSVLSGVSCFVMFLRLADYLV [C18R]: the protein stability index turned out to be 2.65.

For YLDPSVLSGVSCFVMFLYLADYLV [C18Y], the protein stability index amounted to 1.96.

As for YLDPSVLSGVSCFVMFLNLADYLV [C18N], the protein stability index is 2.68.

Take YLDPSVLSGVSCFVMFLALADYLV [C18A]: the protein stability index came to 1.91.

Take YLDPSVLSGVSCFVMFLGLADYLV [C18G]: the protein stability index worked out at 2.47.

For the variant YLDPSVLSGVSCFVMFLVLADYLV [C18V], the protein stability index came out at 2.09.

On to YLDPSVLSGVSCFVMFLKLADYLV [C18K], for which the protein stability index worked out at 2.37.

In the case of YLDPSVLSGSSCFVMFLCLADYLV [V10S], the protein stability index was determined as 3.4.

As for YLDPSVLSGFSCFVMFLCLADYLV [V10F], the protein stability index was found to be 3.19.

In the case of YLDPSVLSGPSCFVMFLCLADYLV [V10P], the protein stability index was found to be 3.06.

Consider YLDPSVLSGLSCFVMFLCLADYLV [V10L], for which the protein stability index turned out to be 2.97.

On to YLDPSVLSGYSCFVMFLCLADYLV [V10Y], for which the protein stability index was 2.38.

In the case of YLDPSVLSGASCFVMFLCLADYLV [V10A], the protein stability index is 3.22.

For YLDPSVLSGISCFVMFLCLADYLV [V10I], the protein stability index is 3.18.

Take YLDPSVLSGMSCFVMFLCLADYLV [V10M]: the protein stability index amounted to 2.44.

As to YLDPSVLSGWSCFVMFLCLADYLV [V10W], the protein stability index was determined as 2.21.

For YLDPSVLSGKSCFVMFLCLADYLV [V10K], the protein stability index was 2.46.

YLDPSVLSGTSCFVMFLCLADYLV [V10T]: the protein stability index was determined as 1.56.

For YLDPSVLSGDSCFVMFLCLADYLV [V10D], the protein stability index was 2.93.

Take YLDPSVLSGCSCFVMFLCLADYLV [V10C]: the protein stability index is 2.61.

For the variant YLDPSVLSGHSCFVMFLCLADYLV [V10H], the protein stability index was determined as 2.26.

YLDPSVLSGQSCFVMFLCLADYLV [V10Q]: the protein stability index stood at 2.89.

For the variant YLDPSVLSGNSCFVMFLCLADYLV [V10N], the protein stability index turned out to be 3.52.

As to YLDPSVLSGESCFVMFLCLADYLV [V10E], the protein stability index was 2.67.

For YLDPSVLSGVSCFVMFLCTADYLV [L19T], the protein stability index came out at 2.74.

As for YLDPSVLSGVSCFVMFLCDADYLV [L19D], the protein stability index amounted to 2.98.

As to YLDPSVLSGVSCFVMFLCWADYLV [L19W], the protein stability index worked out at 1.73.

As to YLDPSVLSGVSCFVMFLCNADYLV [L19N], the protein stability index turned out to be 2.57.

In the case of YLDPSVLSGVSCFVMFLCRADYLV [L19R], the protein stability index was determined as 2.38.

Take YLDPSVLSGVSCFVMFLCSADYLV [L19S]: the protein stability index stood at 3.89.

YLDPSVLSGVSCFVMFLCHADYLV [L19H]: the protein stability index was determined as 3.03.

On to YLDPSVLSGVSCFVMFLCFADYLV [L19F], for which the protein stability index stood at 2.56.

For YLDPSVLSGVSCFVMFLCPADYLV [L19P], the protein stability index was found to be 2.1.

For YLDPSVLSGVSCFVMFLCAADYLV [L19A], the protein stability index came to 2.42.

On to YLDPSVLSGVSCFVMFLCMADYLV [L19M], for which the protein stability index came to 2.06.

Regarding YLDPSVLSGVSCFVMFLCEADYLV [L19E], the protein stability index came to 3.85.

With YLDPSVLSGVSCFVMFLCCADYLV [L19C], the protein stability index was found to be 4.14.

With YLDPSVLSGVSCFVMFLCQADYLV [L19Q], the protein stability index is 2.06.

With YLDPSVLSGVSCFVMFLCKADYLV [L19K], the protein stability index was 2.81.

Consider YLDPSVLSGVSCFGMFLCLADYLV [V14G], for which the protein stability index was 2.85.

YLDPSVLSGVSCFKMFLCLADYLV [V14K]: the protein stability index is 1.98.

For YLDPSVLSGVSCFTMFLCLADYLV [V14T], the protein stability index was 2.04.

For the variant YLDPSVLSGVSCFAMFLCLADYLV [V14A], the protein stability index amounted to 2.62.

On to YLDPSVLSGVSCFFMFLCLADYLV [V14F], for which the protein stability index is 2.09.

As to YLDPSVLSGVSCFPMFLCLADYLV [V14P], the protein stability index is 3.67.

In the case of YLDPSVLSGVSCFLMFLCLADYLV [V14L], the protein stability index came to 2.1.

With YLDPSVLSGVSCFEMFLCLADYLV [V14E], the protein stability index amounted to 2.54.

For YLDPSVLSGVSCFRMFLCLADYLV [V14R], the protein stability index was 1.65.

For YLDPSVLSGVSCFWMFLCLADYLV [V14W], the protein stability index was found to be 2.15.

With YLDPSVLSGVSCFHMFLCLADYLV [V14H], the protein stability index is 2.06.

Regarding YLDPSVLSGVSCFMMFLCLADYLV [V14M], the protein stability index was determined as 3.79.

On to YLDPSVLSGVSCFSMFLCLADYLV [V14S], for which the protein stability index was 2.83.

On to YLDDSVLSGVSCFVMFLCLADYLV [P4D], for which the protein stability index worked out at 3.12.

With YLDGSVLSGVSCFVMFLCLADYLV [P4G], the protein stability index is 3.42.

For the variant YLDVSVLSGVSCFVMFLCLADYLV [P4V], the protein stability index was 3.33.

In the case of YLDNSVLSGVSCFVMFLCLADYLV [P4N], the protein stability index amounted to 2.9.

For YLDISVLSGVSCFVMFLCLADYLV [P4I], the protein stability index came to 2.66.

With YLDLSVLSGVSCFVMFLCLADYLV [P4L], the protein stability index turned out to be 2.76.

In the case of YLDMSVLSGVSCFVMFLCLADYLV [P4M], the protein stability index came to 3.45.

As to YLDKSVLSGVSCFVMFLCLADYLV [P4K], the protein stability index came to 2.63.

For the variant YLDPHVLSGVSCFVMFLCLADYLV [S5H], the protein stability index was 3.5.

Regarding YLDPRVLSGVSCFVMFLCLADYLV [S5R], the protein stability index was found to be 3.56.

Take YLDPPVLSGVSCFVMFLCLADYLV [S5P]: the protein stability index amounted to 3.19.

Regarding YLDPLVLSGVSCFVMFLCLADYLV [S5L], the protein stability index was found to be 3.09.

For the variant YLDPDVLSGVSCFVMFLCLADYLV [S5D], the protein stability index amounted to 3.07.

As to YLDPKVLSGVSCFVMFLCLADYLV [S5K], the protein stability index was found to be 3.47.

For YLDPMVLSGVSCFVMFLCLADYLV [S5M], the protein stability index came out at 3.03.

Take YLDPGVLSGVSCFVMFLCLADYLV [S5G]: the protein stability index was determined as 3.63.

Take YLDPNVLSGVSCFVMFLCLADYLV [S5N]: the protein stability index was found to be 2.26.

Regarding YLDPIVLSGVSCFVMFLCLADYLV [S5I], the protein stability index was 3.61.
